Source: patent US11597951B2 (Lygos, Inc., priority 2018, dated 2023)

Experiments:
E. coli strain K12 = test: In vivo production of malonate in E. coli using S. cerevisiae EHD3 malonyl-CoA hydrolases; type: cell-based; settings: for Malonate Concentration: E. coli K12, M9 minimal medium, 30° C., 48 hours, mean±std dev, n=3; for malonate production relative to wild-type EHD3: E. coli K12, 48 hours
Description: This example describes the host cells and culture conditions resulting in the in vivo production of malonate using a heterologous EHD3 malonyl-CoA hydrolase in an E. coli host cell. E. coli strain K12 was transformed with vectors containing wild-type EHD3, EHD3 (E124A), […], EHD3 (E124S), EHD3 (E124A, E308V) or an empty vector negative control. Transformants were streaked on LB agar plates (Cm^50, 2% glucose). Following overnight growth at 37° C., individual colonies were inoculated into 3 ml LB (Cm^50, 2% glucose) in a 48-well plate. Cultures were incubated on a plate shaker at 37° C. for 6 hours, at which point each culture was inoculated 1% v/v into M9 minimal medium supplemented with Cm^50 and a mixed carbon source (0.5% glycerol, 0.05% glucose, 0.2% lactose) in a 48-well plate. Cultures were incubated on a plate shaker at 30° C., and a 500 μL sample of the fermentation broth was removed for analysis after 48 hours incubation.
Samples were centrifuged (×6000 g, 1 min) and the supernatant analyzed for malonate quantification. Chemical standards were prepared in […] of water. The separation of malonate was conducted on a Shimadzu Prominence XR UPLC connected to a refractive index detector and UV detector monitoring 210 nm. Product separation was performed on a Bio-Rad Fermentation Monitoring column. The UPLC was programmed to run isocratically using 5 mM H2504 as the eluant with a flow rate of 600 μL per minute. 10 μL were injected per sample, and the sample plate temperature was held at 4° C. Malonate standards began eluting at […]. […] Malonate concentrations (mg/1) were calculated by comparison to a standard curve prepared from authentic malonate.

S. cerevisiae = test: Production of malonate in yeast expressing engineered FabD malonyl CoA:ACP transacylase; type: cell-based
Excerpt: In this example, FabD from E. coli, a malonyl CoA:ACP transacylase (EC 2.3.1.39) having one or more of the following amino acid changes at the indicated positions: C92, H201, N201, D117, E117, N117, Y117, G117, H117, Q11, D11, Ell, N11, Y11, G11, H11, A93, V93, I93, F93, S93, G93 was employed as a malonyl-CoA hydrolase. The nucleic acid encoding E. coli FabD was PCR amplified from E. coli strain K12 using primer F1 (5′-[…]-3′) (SEQ ID NO: 43) and F2 (5′-[…]-3′) (SEQ ID NO: 44). The amplified gene was then mutated using standard methods and inserted into a shuttle expression plasmid under the control of the TEF1 promoter and upstream of the CYC1 terminator. This vector contains an ampicillin resistance cassette, a PMB1 origin of replication, a CEN/ARS origin of replication, and a URA3 selection marker. The individual mutational combinations assayed are listed with the results below.
Individual colonies were inoculated into 1 ml of yeast fermentation media comprising 5 g/L ammonium sulfate, 1 g/L monopotassium phosphate, 0.5 g/L magnesium sulfate, 0.1 g/L sodium chloride, 0.1 g/L calcium chloride, 2 mg/L inositol, 0.5 mg/L boric acid, 0.4 mg/L calcium pentothenate, 0.4 mg/L niacin, 0.4 mg/L pyridoxine hydrochloride, 0.4 mg/L thiamine HCl, 0.4 mg/L zinc sulfate, 0.4 mg/L manganese sulfate, 0.2 mg/L p-aminobenzoic acid, 0.2 mg/L riboflavin, 0.2 mg/L sodium molybdate, 0.2 mg/L ferric chloride, 0.1 mg/L potassium iodide, 40 μg/L copper sulfate, 2 μg/L folic acid, 2 μg/L biotin, 10 mg/L adenine, 50 mg/L L-arginine HCl, 80 mg/L L-aspartic acid, 20 mg/L L-histidine HCl, 50 mg/L L-isoleucine, 100 mg/L L-leucine, 50 mg/L L-lysine HCl, 20 mg/L methionine, 50 mg/L L-phenylalanine, 100 mg/L L-threonine, 50 mg/L L-tryptophan, 50 mg/L L-tyrosine, and 140 mg/L L-valine (the base media) containing 2% glucose as a carbon source. The cultures were incubated on a shaker at 30° C. for 24 h, and 20 μl of these cultures were used to inoculate production cultures of 2 ml of the same media. The production cultures were covered with a breathable membrane, incubated with shaking at 30° C. and sampled for HPLC analysis of product accumulation after 96 h and 168 h of growth.

Molecule	Malonate Concentration (E. coli strain K12) [mg/L]	Malonate accumulation (S. cerevisiae; 96 h of fermentation) [mM]	Malonate accumulation (S. cerevisiae; 168 h of fermentation) [mM]	malonate production relative to wild-type EHD3 (E. coli strain K12)
Wild-type EHD3: wild type S. cerevisiae EHD3 acyl-CoA hydrolase, SEQ ID NO:1	6.0 ± 0.2			
FabD S92C/L93V/R117H: engineered E. coli FabD malonyl CoA:ACP transacylase with S92C/L93V/R117H (protein, UniProt P0AAI9 2-309, looked up, variant S92C L93V R117H) Malonyl CoA-acyl carrier …: TQFAFVFPGQGSQTVGMLADMAASYPIVEETFAEASAALGYDLWALTQQGPAEELNKTWQTQPALLTASVALYRVWQQQGGKAPAMMAGHCVGEYSALVCAGVIDFADAVRLVEMHGKFMQEAVPEGTGAMAAIIGLDDASIAKACEEAAEGQVVSPVNFNSPGQVVIAGHKEAVERAGAACKAAGAKRALPLPVSVPSHCALMKPAADKLAVELAKITFNAPTVPVVNNVDVKCETNGDAIRDALVRQLYNPVQWTKSVEYMAAQGVEHLYEVGPGKVLTGLTKRIVDTLTASALNEPSAMAAALEL		1.01	2.49	
FabD L93I/R117Y: engineered E. coli FabD malonyl CoA:ACP transacylase with L93I/R117Y (protein, UniProt P0AAI9 2-309, looked up, variant L93I R117Y) Malonyl CoA-acyl carrier …: TQFAFVFPGQGSQTVGMLADMAASYPIVEETFAEASAALGYDLWALTQQGPAEELNKTWQTQPALLTASVALYRVWQQQGGKAPAMMAGHSIGEYSALVCAGVIDFADAVRLVEMYGKFMQEAVPEGTGAMAAIIGLDDASIAKACEEAAEGQVVSPVNFNSPGQVVIAGHKEAVERAGAACKAAGAKRALPLPVSVPSHCALMKPAADKLAVELAKITFNAPTVPVVNNVDVKCETNGDAIRDALVRQLYNPVQWTKSVEYMAAQGVEHLYEVGPGKVLTGLTKRIVDTLTASALNEPSAMAAALEL		1.64	3.47	
FabD L93S/R117G: engineered E. coli FabD malonyl CoA:ACP transacylase with L93S/R117G (protein, UniProt P0AAI9 2-309, looked up, variant L93S R117G) Malonyl CoA-acyl carrier …: TQFAFVFPGQGSQTVGMLADMAASYPIVEETFAEASAALGYDLWALTQQGPAEELNKTWQTQPALLTASVALYRVWQQQGGKAPAMMAGHSSGEYSALVCAGVIDFADAVRLVEMGGKFMQEAVPEGTGAMAAIIGLDDASIAKACEEAAEGQVVSPVNFNSPGQVVIAGHKEAVERAGAACKAAGAKRALPLPVSVPSHCALMKPAADKLAVELAKITFNAPTVPVVNNVDVKCETNGDAIRDALVRQLYNPVQWTKSVEYMAAQGVEHLYEVGPGKVLTGLTKRIVDTLTASALNEPSAMAAALEL		1.11	2.89	
FabD L931/R117Y: engineered E. coli FabD malonyl CoA:ACP transacylase variant, printed L931/R117Y (protein, UniProt P0AAI9 2-309, looked up, variant L93I R117Y) Malonyl CoA-acyl carrier …: TQFAFVFPGQGSQTVGMLADMAASYPIVEETFAEASAALGYDLWALTQQGPAEELNKTWQTQPALLTASVALYRVWQQQGGKAPAMMAGHSIGEYSALVCAGVIDFADAVRLVEMYGKFMQEAVPEGTGAMAAIIGLDDASIAKACEEAAEGQVVSPVNFNSPGQVVIAGHKEAVERAGAACKAAGAKRALPLPVSVPSHCALMKPAADKLAVELAKITFNAPTVPVVNNVDVKCETNGDAIRDALVRQLYNPVQWTKSVEYMAAQGVEHLYEVGPGKVLTGLTKRIVDTLTASALNEPSAMAAALEL		1.47	2.48	
EHD3 (E124V): S. cerevisiae EHD3 with point mutation E124V, malonyl-CoA hydrolase (protein, UniProt P28817 1-500, looked up, variant E124V) Small ribosomal subunit …: MLRNTLKCAQLSSKYGFKTTTRTFMTTQPQLNVTDAPPVLFTVQDTARVITLNRPKKLNALNAEMSESMFKTLNEYAKSDTTNLVILKSSNRPRSFCAGGDVATVAIFNFNKEFAKSIKFFTDVYSLNFQIATYLKPIVTFMDGITMGGGVGLSIHTPFRIATENTKWAMPEMDIGFFPDVGSTFALPRIVTLANSNSQMALYLCLTGEVVTGADAYMLGLASHYVSSENLDALQKRLGEISPPFNNDPQSAYFFGMVNESIDEFVSPLPKDYVFKYSNEKLNVIEACFNLSKNGTIEDIMNNLRQYEGSAEGKAFAQEIKTKLLTKSPSSLQIALRLVQENSRDHIESAIKRDLYTAANMCMNQDSLVEFSEATKHKLIDKQRVPYPWTKKEQLFVSQLTSITSPKPSLPMSLLRNTSNVTWTQYPYHSKYQLPTEQEIAAYIEKRTNDDTGAKVTEREVLNHFANVIPSRRGKLGIQSLCKIVCERKCEEVNDGLRWK	0.28 ± 0.03			decreased production of malonate
EHD3 (E124A): S. cerevisiae EHD3 with point mutation E124A, malonyl-CoA hydrolase (protein, UniProt P28817 1-500, looked up, variant E124A) Small ribosomal subunit …: MLRNTLKCAQLSSKYGFKTTTRTFMTTQPQLNVTDAPPVLFTVQDTARVITLNRPKKLNALNAEMSESMFKTLNEYAKSDTTNLVILKSSNRPRSFCAGGDVATVAIFNFNKEFAKSIKFFTDAYSLNFQIATYLKPIVTFMDGITMGGGVGLSIHTPFRIATENTKWAMPEMDIGFFPDVGSTFALPRIVTLANSNSQMALYLCLTGEVVTGADAYMLGLASHYVSSENLDALQKRLGEISPPFNNDPQSAYFFGMVNESIDEFVSPLPKDYVFKYSNEKLNVIEACFNLSKNGTIEDIMNNLRQYEGSAEGKAFAQEIKTKLLTKSPSSLQIALRLVQENSRDHIESAIKRDLYTAANMCMNQDSLVEFSEATKHKLIDKQRVPYPWTKKEQLFVSQLTSITSPKPSLPMSLLRNTSNVTWTQYPYHSKYQLPTEQEIAAYIEKRTNDDTGAKVTEREVLNHFANVIPSRRGKLGIQSLCKIVCERKCEEVNDGLRWK	7.6 ± 0.7			only a minor increase
EHD3 (E124A/E308V): S. cerevisiae EHD3 with mutations E124A and E308V, malonyl-CoA hydrolase (protein, UniProt P28817 1-500, looked up, variant E124A E308V) Small ribosomal subunit …: MLRNTLKCAQLSSKYGFKTTTRTFMTTQPQLNVTDAPPVLFTVQDTARVITLNRPKKLNALNAEMSESMFKTLNEYAKSDTTNLVILKSSNRPRSFCAGGDVATVAIFNFNKEFAKSIKFFTDAYSLNFQIATYLKPIVTFMDGITMGGGVGLSIHTPFRIATENTKWAMPEMDIGFFPDVGSTFALPRIVTLANSNSQMALYLCLTGEVVTGADAYMLGLASHYVSSENLDALQKRLGEISPPFNNDPQSAYFFGMVNESIDEFVSPLPKDYVFKYSNEKLNVIEACFNLSKNGTIEDIMNNLRQYVGSAEGKAFAQEIKTKLLTKSPSSLQIALRLVQENSRDHIESAIKRDLYTAANMCMNQDSLVEFSEATKHKLIDKQRVPYPWTKKEQLFVSQLTSITSPKPSLPMSLLRNTSNVTWTQYPYHSKYQLPTEQEIAAYIEKRTNDDTGAKVTEREVLNHFANVIPSRRGKLGIQSLCKIVCERKCEEVNDGLRWK	8.35 ± 2.5			
